# Data published in patent US20150158949A1 (MEDLMMUNE, published 2015).
# B1: MEDI-546 (antibody, human IgG1, V domains shown)
# VH: EVQLVQSGAEVKKPGESLKISCKGSGYIFTNYWIAWVRQMPGKCLESMGIIYPGDSDIRYSPSFQGQVTISADKSITTAYLQWSSLKASDTAMYYCARHDIEGFDYWGRGTLVTVSS
# VL: EIVLTQSPGTLSLSPGERATLSCRASQSVSSSFFAWYQQKPGQAPRLLIYGASSRATGIPDRLSGSGSGTDFTLTITRLEPEDFAVYYCQQYDSSAITFGQGTRLEIK
# B2: MEDI-546-Alexa647 (antibody, human IgG1, V domains shown)
# VH: B1 VH
# VL: B1 VL
# modifications: Alexa647 dye conjugated to the antibody (sites and chain not stated)
# Experiments:
# [1] = molecular target: T1, IFNAR1 (Interferon alpha receptor-1) (human, UniProt P17181 28-557); experiment: cell-based or functional assay
# T1 sequence (looked up): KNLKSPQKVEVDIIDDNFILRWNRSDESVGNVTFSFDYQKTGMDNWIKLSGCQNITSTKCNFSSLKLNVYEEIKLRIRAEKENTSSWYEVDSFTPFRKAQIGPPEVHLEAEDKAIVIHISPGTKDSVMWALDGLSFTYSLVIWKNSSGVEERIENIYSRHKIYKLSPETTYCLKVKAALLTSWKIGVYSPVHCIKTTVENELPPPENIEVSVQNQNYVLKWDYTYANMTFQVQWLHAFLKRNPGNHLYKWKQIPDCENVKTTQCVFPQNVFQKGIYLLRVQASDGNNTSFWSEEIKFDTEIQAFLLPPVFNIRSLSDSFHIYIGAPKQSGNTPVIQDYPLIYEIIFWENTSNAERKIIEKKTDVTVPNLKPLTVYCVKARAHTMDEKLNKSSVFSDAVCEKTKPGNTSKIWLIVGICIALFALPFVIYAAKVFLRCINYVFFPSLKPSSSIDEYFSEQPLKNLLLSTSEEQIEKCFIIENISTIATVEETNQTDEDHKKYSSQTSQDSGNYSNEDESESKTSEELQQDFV
# [2] = molecular target: T1, IFNAR1 (Interferon alpha receptor-1); experiment: live-cell confocal fluorescence imaging of IFNAR1-expressing THP-1 cells, 1 µg/mL, stained on ice, FcR blocked
# Experimental: Reaction mixtures were purified from unincorporated fluorescent molecules using size-exclusion mini-columns provided in the kit. IFNAR1-expressing THP-1 cells were maintained in suspension using RPMI growth medium containing 10% FBS, and seeded in a fresh growth medium at 2×10^5 cells/mL overnight prior to the experiments. On the day of experiments, THP-1 cells were washed and resuspended to a concentration of 3×10⁶ cells/mL.
# Cell suspensions were first stained for 10-20 min with cytosol dye, CFSE, from Invitrogen (Life Technologies Corp, Carlsbad, Calif.) in a CO₂ incubator at 37° C. Excess CFSE was removed by two washes with 1×PBS. […] Following the removal of unincorporated antibodies by centrifugation, cells were resuspended to initial volumes, and dispensed into the wells of 384-well imaging plates.
Binder,"IC50 (nM), bootstrap median [1]","IC50 (nM): Potency, MEDI-546 concentration corresponding to half-maximum inhibition of GS production [1]",binding result [2]
B1,0.772 nM,0.978 nM,
B2,,,binds
